Reference: the supplement of paper PMC9170038

Tested on: MS2 coat protein
Assay: apparent KD of MS2 coat protein; designed switch direction (-1 OFF switch, 1 ON switch): 1; higher = weaker reporter binding
In short: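 Normalised cluster fluorescence was curve-fitted, and each design's median over clusters is its apparent KD. Before this, SNAP-549-labelled MS2 coat protein was titrated from 0.7 or 1.5 nM, doubling to 3 µM, over RNA switches transcribed on Illumina chips by stalled E. coli RNA polymerase. Titrations had no input, 200 uM small-molecule ligand, or an oligonucleotide input, and steps lasted 0.8–1.5 h (lowest) to 10–20 min (highest).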

[1] = input ligand: microRNA oligo, concentration not stated
[2] = Eterna round: R95, input ligand: FMN 200 uM
[3] = Eterna round: R95, input ligand: microRNA oligo, concentration not stated
[4] = Eterna round: R95, input ligand: none

Sequence | apparent KD of MS2 coat protein (input ligand: FMN 200 uM) [nM] | apparent KD of MS2 coat protein [1] [nM] | apparent KD of MS2 coat protein (input ligand: none) [nM] | apparent KD of MS2 coat protein [2] [nM] | apparent KD of MS2 coat protein [3] [nM] | apparent KD of MS2 coat protein [4] [nM]
GGUAGGUUACUACCAAACAUGAGGAUCACCCAUGUAGGUGGGAAGGAUAUGGUACCUUUUAGGUACCAGAAGGUCCAUACAAUU [NGss mod of JL's mod of Fisker] (Eterna round: R96, puzzle: Same State NG 3) | 318 | 154 | 203 |  |  | 
GGUAGGUUACUACCAACACAUGAGGAUCACCCAUGUUAGUGGGAGGAUAUGGUACCUAUUUGGUACCAGAAGGUCCAGUUAAUU [Fiskers NG3ss - 15] (Eterna round: R96, puzzle: Same State NG 3) | 131 | 161 | 435 |  |  | 
GGUAGGUUACUACCAAUCUACAUGAGGAUCACCCAUGUGUAGGAGGAUAUGGUACCUAUUUGGUACCAGAAGGCCUUAUUAAUU [Fiskers NG3ss - 10] (Eterna round: R96, puzzle: Same State NG 3) | 143 | 81.8 | 98.8 |  |  | 
GGUAGGUUACUACCAUACAUGAGGAUCACCCAUGUAAAUGGGAAGGAUAUGGUACCUAUUUGGUACCAGAAGGUCCAAAUAAUU [Mat - Same State NG 3 - JL Mod - D96] (Eterna round: R96, puzzle: Same State NG 3) | 156 | 645 | 1170 |  |  | 
GGUAUCGGCGCAGGAUAUGCUAUCCUUUGGGUAGCAGAAGGGUGAACAUGAGGAUCACCCAUGUAGGUGCCAGGGCGUGAGCCC [JL SSNG1 1.81] (Eterna round: R96, puzzle: Same State NG 1) | 1130 | 147 | 444 |  |  | 
GGUCCAGCCUGAGCUGGACAAAAGCAUGUACAUGAGGAUCACCCAUGUCAUGUACAAGCUUUUUGCUCGUCUAAAAG [Mat - hsa-mir-208a - 95] (puzzle: Sensor for hsa-mir-208a) |  |  |  | 234 | 19 | 467
GGUCCAGCCUGAGCUGGACAAAAGCAUGUACAUGAGGAUCACCCAUGUCAUGUACAAGCUUUUUGCUCGUCUUAAGA [Mat - hsa-mir-208a - 88] (Eterna round: R96, puzzle: Sensor for hsa-mir-208a) | 752 | 15.4 | 712 |  |  | 
GGUCCAGCCUGAGCUGGACAAAAGCAUGUACAUGAGGAUCACCCAUGUCAUGUACAAGCUUUUUGCUCGUCUUAAGA [Mat - hsa-mir-208a - 88] (puzzle: Sensor for hsa-mir-208a) |  |  |  | 1060 | 17.7 | 1020
GGUCCAGCCUGAGCUGGACAAAAGCGUGUACAUGAGGAUCACCCAUGUCAUGUACAAGCUUUUUGCUCGUCUUAAAA [JL mod - D87 - 6] (puzzle: Sensor for hsa-mir-208a) |  |  |  | 80.2 | 18.8 | 94.9
GGUCCAGCCUGAGCUGGACCACAGCAUGUACAUGAGGAUCACCCAUGUCAUGUACAUGCUUUUUGUUUGUCUUAAAA [Sensorship 11 - Jieux - Sensor for hsa-mir-208a] (puzzle: Sensor for hsa-mir-208a) |  |  |  | 72.2 | 32.7 | 47.3
GGUCCAGCCUGAGCUGGACGAAAGUAUGUACAUGAGGAUCACCCAUGUCAUGUAUAAGUUUUUUGUUCGUCUUGAAA [Sensorship 1 - Jieux - Sensor for hsa-mir-208a] (puzzle: Sensor for hsa-mir-208a) |  |  |  | 26 | 14.2 | 23.1
GGUCCAGCUUUUGCUGGUCCUUCGCUUGCACAUGAGGAUCACCCAUGUCGUGUACAUGCUUCCUGCCCGUCUUUUUU [Photon Torp-17] (puzzle: Sensor for hsa-mir-208a) |  |  |  | 34.4 | 15.5 | 39.1
GGUCGGACUCACAUGAGGAUCACCCAUGUUGCGGAAACGCCAUAGGAUAUCUGUCCGAAAAGGUCAGAGAAGGGUGAACCGACC [Fiskers NG3ss - 65] (Eterna round: R96, puzzle: Same State NG 3) | 515 | 391 | 572 |  |  | 
GGUCGGACUCACAUGAGGAUCACCCAUGUUGGCGAAAGCCGACAGGAUAUCUGUCCGAAAAGGUCAGAGAAGGGUUAACCGACC [Fiskers NG3ss - 61] (Eterna round: R96, puzzle: Same State NG 3) | 397 | 326 | 159 |  |  | 
GGUCGGUCCAAACAUGAGGAUCACCCAUGUCCGGAAACGGCAUAGGAUAUCUGUCCGAAAAGGUCAGAGAAGGGUGAACCGACC [Fiskers NG3ss - 71] (Eterna round: R96, puzzle: Same State NG 3) | 795 | 741 | 149 |  |  | 
GGUCUAGUUACAGGAUAUGCUAUCCUUUGGGUAGCAGAAGGGUGGUAACAUGAGGAUCACCCAUGUGGGCCAGGGCGUGAGCCC [JL SSNG1 1.00] (Eterna round: R96, puzzle: Same State NG 1) | 770 | 981 | 1260 |  |  | 
GGUGCCAAAUAAGCCUACAUGAGGAUCACCCAUGUAUGUAGGCAGGAUAUCGUAUGCAAAGCAUACGAGAAGGGCUGAGGCACC [Mat - Same State NG 3 - JL Mod - D54] (Eterna round: R96, puzzle: Same State NG 3) | 25.7 | 51.6 | 80.5 |  |  | 
GGUGCGAAAUAAGCCUACAUGAGGAUCACCCAUGUAUGUAGGCAGGAUAUCGUAUGCAAAGCAUACGAGAAGGGCUGACGCACC [Mat - Same State NG 3 - JL Mod - D51] (Eterna round: R96, puzzle: Same State NG 3) | 32.5 | 55.9 | 75.4 |  |  | 
GGUGGGUUACUACCCACACAUGAGGAUCACCCAUGUAUUGGGAAGGAUAUGGUGCCUGUGUGGUACCAGAAGGUCCUGAAGGUG [SS-NG3-LRO18] (Eterna round: R96, puzzle: Same State NG 3) | 1360 | 1030 | 2130 |  |  | 
GGUGUACAUGAGGAUCACCCAUGUCGUACGACAUGAGGAUAUGUACAGACUUCGGUCUGUACAGAAGGCAUGUGUC [SS1 - 1011 Omei Mod 5] (puzzle: Same State 1) |  |  |  |  | 210 | 
GGUUUAGCCAGGUGCAGUUGCACCUGAAAACAUGAGGAUCACCCAUGUUUGGGACAAGCUUUGCUCCUCGUCUUUCC [Isusreraar] (puzzle: Sensor for hsa-mir-208a) |  |  |  | 267 | 38.7 | 364
GGUUUAGUCAAGUGCCGUUGCACUUGAAAACAUGAGGAUCACCCAUGUUCGGGACAAGCUUUGCUCCUCGUCUUUCC [Geisedor] (puzzle: Sensor for hsa-mir-208a) |  |  |  | 255 | 50.2 | 389
GUAAAACAUGAGGAUCACCCAUGUAAUAUAAUGGGAGGAUAUCUGAUUUAAUUAAAUUUAAGAGAAGGCCUAAAUG [Mat - Same State 1 - Mod of Eli - D56] (puzzle: Same State 1) |  |  |  | 32.1 | 107 | 123
GUAAAACAUGAGGAUCACCCAUGUCAACAAAGUCGAGGAUAUGGGCAUAUAUUAUAUGAACCAGAAGGCGAAUAUG [Mat - Same State 1 - Mod of UCT - D27] (puzzle: Same State 1) |  |  |  | 14.6 | 43.1 | 33.9
GUAAAACAUGAGGAUCACCCAUGUCAUCUAAGUCGAGGAUAUGGGAAUUAAUUAAUUAAUCCAGAAGGCGAAAAUG [Mat - Same State 1 - D94] (puzzle: Same State 1) |  |  |  | 41.1 | 58.1 | 110
GUAAGUUUGAUGCUCGUCUCUCCGUACAGACAUGAGGAUCACCCAUGUAGUCGGGAAGUAGCCCGGCCAGUAUGGCC [Zaorve] (puzzle: Sensor for hsa-mir-208a) |  |  |  | 18.1 | 22.2 | 17.7
GUAAUAAAGGAAGGAUAUGGGUAAACGGGAAUCCCAGAAGGUCCACAUGAGGAUCACCCAUGUGGUCCCGAAACCAAGGGACCG [Cetibiza] (Eterna round: R96, puzzle: Same State NG 1) | 53.1 | 19.3 | 48.7 |  |  | 
GUACAAAUCAUAGGAUAUGGGCGGGAAUGCCGUCCAGAAGGAUGAACAUGAGGAUCACCCAUGUCCGGCCGCAAAUACGCGGCC [Xexeti] (Eterna round: R96, puzzle: Same State NG 1) | 62.6 | 140 | 209 |  |  | 
GUACAGAUUAUAGGAUAUCACGUCGUUUAGACGUGAGAAGGAUAAUCCCACAUGAAUAUUAAUACAUGAGGAUCACCCAUGUAC [SSNG1/18-B3] (Eterna round: R96, puzzle: Same State NG 1) | 21.8 | 27.7 | 30.7 |  |  | 
GUACAUAUUAUAGGAUAUCACGUCGAUUAGACGUGAGAAGGAUAAUCCCACAUGAAUAUUAAUACAUGAGGAUCACCCAUGUAC [SSNG1/18-A2] (Eterna round: R96, puzzle: Same State NG 1) | 83.3 | 66.3 | 51 |  |  | 
